Results taken from the nanobody polyreactivity screen of Harvey et al. (2022).

assay: yeast display, Sf9 membrane polyspecificity reagent, FACS + sequencing; frameworks hold sequencing errors
Outline: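 Genes from sorted yeast were amplified by colony PCR, read by MiSeq 2 × 250 sequencing and filtered on CDR length. These cells carried a synthetic nanobody library in Saccharomyces cerevisiae BJ5465 and were sorted by FACS into low and high (top ~1%) gates on anti-HA and streptavidin fluorescence. Polyreactivity is labelled according to the gate of origin.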

Sequence | polyreactivity (PSR sort gate)
QVQLVESGGGLVQAGGSLRLSCAASGRTIRGYAMGWYRQAPGKEREFVASITWNSVSTSYADSVKGRFTISRDNAKNTVYLQMNSLKPEDTAVYYCNRRTGSYGRTPVGKGEYYYWGQGTQVTVSS | high polyreactivity
QVQLVESGGGLVQAGGSLRLSCAASGRTIRHNAMGWYRQAPGKERELVAAISRSGGSTYYADSVKGRFTISRDYAKNTVYLQMNSLKPEDTAVYYCAAGYHIIYTPEYYYWGQGTQVTVSS | high polyreactivity
QVQLVESGGGLVQAGGSLRLSCAASGRTIRNNAMGWYRQAPGKERDLVASITRSGGSTYYADSVKGRFTISRDNANNSVSLQLNSLKPEDTSVFYCNRVAHSLTYPTDHEFNYWGQGTQVTVSS | high polyreactivity
QVQLVESGGGLVQAGGSLRLSCAASGRTIRTYTMGWYRQAAGKERELVAAISWSGSSTYYADSVKGRFTISRDNAKNTVYLQMNSLKPEDTAVYYCAARGLYDYGYWGQGTQVTVSS | high polyreactivity
QVQLVESGGGLVQAGGSLRLSCAASGRTIRWYTMGWYRQAPGKERELVAGISSSGGSTYYAESVKGRYTISRDYAKNTVYLQMNSLKPEDTAVYYCAASAAYYGFYKSVSYEYWGQGTQLTVSS | low polyreactivity
QVQLVESGGGLVQAGGSLRLSCAASGRTIWYYAMGWYRQAPGKESELVAAISWSGGTTFYADSVKGRFTISRDNAKYTVYLQMNSLKPEDTAVYYCAKKCIGYQEWIHSTRRYDYWGQGTQVTVSS | low polyreactivity
QVQLVESGGGLVQAGGSLRLSCAASGRTIYGYAMGWYRQAPGKERELVAAISWTGGRTYYADSVKGRFTISRDNAKNTVYLQMNSLKPEDTAVYYCNARRRGDSGDGYIYGYWGQGTQVNVSS | high polyreactivity
QVQLVESGGGLVQAGGSLRLSCAASGRTIYRYAMGWYRQAPGKERELVAAITRRGVNTYYADSVKGRFTISRDNAKNTVYLQMNSLKPEDTAVYYCAAENGALVTYGYWGQGTQVTVSS | high polyreactivity
QVQLVESGGGLVQAGGSLRLSCAASGRTIYYYARGWYRQAPGKERELVAAITLRGGSTYYADSVKGRFTISRDNAKKTVYLQMNSLKPEDTAVYYCAKESTVRRYDYWGQGTQVTVSS | low polyreactivity
QVQLVESGGGLVQAGGSLRLSCAASGRTLAFNAMGWSRQAPGKERELGAGIRNGTSTNYADSVKGRFTISRVNAKNTVYLQMNCLKPEDTADYYCNVPYYLQSYLSGYDYWGQGTQVSVSS | low polyreactivity
QVQLVESGGGLVQAGGSLRLSCAASGRTLARNAMGWYRQAPGKERELVARIRDSGGSKYYADSVKGRFTISRDNAKNTVYLQMNSLKPEDTAVYYCAARSRLVYSYYTYWGQGTQVTVSS | high polyreactivity
QVQLVESGGGLVQAGGSLRLSCAASGRTLAYYVMGWYRQAPGKERELVAAISGRGGRTNYADSVKGRFTISRDNAKNTVYLQMNSLKPEDTAVYYCAAYRTGYNVDYYYWGQGTQVTVSS | high polyreactivity
QVQLVESGGGLVQAGGSLRLSCAASGRTLDVNAMGWYRQAPGKERELVAAISYSGGITYYADSVKGRFTISRDNAKNTVYLQMNSLKPEDTAVYYCAVVGGYPSYTVDYWGQGTQVTVSS | low polyreactivity
QVQLVESGGGLVQAGGSLRLSCAASGRTLFFYAMGLYRQAPGKERELVAAISSSGTRTYYADSVKGRFTISRDNAKNTVYLQMNSLIPEDTAVYYCNKVKYYRTGGMEYWGQGTQVTVSS | high polyreactivity
QVQLVESGGGLVQAGGSLRLSCAASGRTLGDYGMGWYRQAPGKETQLVAVITSGGSPYYADSVKGRFTISRDNAKNTVYLQMNSLKPEDNAVYFCNARHPYYTVQTGGYDYWGQGTQVTVSS | low polyreactivity
QVQLVESGGGLVQAGGSLRLSCAASGRTLGGYAMVWYRQAPGTERELVAAITRRGGSTYYADSVKGRFTISRDNAKNTVYLQMYSLKQEDTAVYYCAARYLYSDEYWDKFYYWGQGTQVTVSS | high polyreactivity
QVQLVESGGGLVQAGGSLRLSCAASGRTLGGYTMGWYRQAPGKERELVAAITTGGSTNYADSVKGRFTISRDNAKNTVYLQMKSLIPEDTAVYYCATDLVFDKRYWYDFWGEGTQVTVSS | low polyreactivity
QVQLVESGGGLVQAGGSLRLSCAASGRTLGPNAMGWYRQAPGKERELVAGITGRGGITYYTDSEKGRFTISRDNAKNTVYLQMNSLKPEDTAVYYCAARRYRFAGDYRMYYWGQGTQVTVSS | high polyreactivity
QVQLVESGGGLVQAGGSLRLSCAASGRTLGSYAMGWYRQAPGKETELVAAIRGSGVSTYYADSVKGRFTISRDNAKNTVYLQMNSLNPEDTAVYYCAARSYIRVWKKGAVQRSVYYWGQGTQVTVSS | high polyreactivity
QVQLVESGGGLVQAGGSLRLSCAASGRTLGVNAMGWYRQAPGKERELVAAISTRGTTTNYADSVKGRFTISRDNAKNTVYLQMNSLKPEDTAVYYCAVRSRTPRAYYYWGQGTQVTVSS | low polyreactivity

Sequence | polyreactivity (PSR sort gate)
QVQLVESGGGLVQAGGSLRLSCAASGRTLGVYTMGWYRQAPGKERELVATISWDGGITYYADSVKGRFTISRDNAKNTVYLQMNSLKPEDNAVYYCAAVDHSYGWMDYWGQGTQVTVSS | low polyreactivity
QVQLVESGGGLVQAGGSLRLSCAASGRTLGYYAMGWYRQAPGKERELVAAISRSGGSTYYADSVKGRFTISRDHAKNTVYLQMNSLKPEDTAVYYCAATYGPSRYRYDYWGQGTQVTVSS | high polyreactivity
QVQLVESGGGLVQAGGSLRLSCAASGRTLIWYTMGWYRQAPGKERELVAAITSGGSTYYADSVKGRFTISRDNAKNTVYLRMNSLKPEDTAVYYCAAVYPAAPRAYGYWGQGTQVTVSS | low polyreactivity
QVQLVESGGGLVQAGGSLRLSCAASGRTLKKNAMGWYRQAPGKEMELVAAITSSTGITYYADSVKGRFTISRDNAKNTVYLQMNSLKPEDTAVYYCAADPPRTLSLIFYSREWSYDYWGQGTQVTVSS | low polyreactivity
QVQLVESGGGLVQAGGSLRLSCAASGRTLKVYAMGWYRQAPGKERELVAAINNGGSTNYADSVKGRFTISRDNAKNTVYLQMNSLKPEDTAVYYCNAVYYARYRKYTYYYWGQGTQVTVSS | high polyreactivity
QVQLVESGGGLVQAGGSLRLSCAASGRTLLKNAMGWYRQAPGKEREFVAAITYSSGSTYYADSVKGRFTISRDNAKNTVYLQMNSLKPEDTAVYYCAKTNFSQSSRYNYDYWGQGTQVTVSS | low polyreactivity
QVQLVESGGGLVQAGGSLRLSCAASGRTLNYNVLGWYRQAPGKERELVASITSRGGSTRYADSVKGRFTISRDHAKNTVYLQMNSLKPEDTAGYYCAARYTTARSSYDYWGQGTQVTVSS | high polyreactivity
QVQLVESGGGLVQAGGSLRLSCAASGRTLRGNAMGWYRQAPGKEREFVAAITRRGGSTYYADSVKGRFTISRDNAKNTVYLQMNSLKPEDTAVYYCAAEGYDWIYLYYGLGYWGQGTQVTVSS | low polyreactivity
QVQLVESGGGLVQAGGSLRLSCAASGRTLRGYAMGWYRKAPGKEREFVAAISSRGGSTYYADSVKGRFTISRDNAKNTVYLQMNSLKPEDTAVYYCAALRPVFATSHARDYWGQGTQVTVSS | high polyreactivity
QVQLVESGGGLVQAGGSLRLSCAASGRTLRHYAMGWYRQAPGKERELVAAISSTGSSTYYADSVKGRFTISRDNAKITVYLQMNSLKPEDTAVYYCAADKYTWDAGGVVYWGQGTQVTVSS | low polyreactivity
QVQLVESGGGLVQAGGSLRLSCAASGRTLRHYTMGWYRQAPGKERELVAAITSRGSSTYYAESVKGRFTISRDNAKNTVYLQMNSLTPEDTAVYYCNATYVRLTQYFPRLYYPYYFWGQGTQVTVSS | low polyreactivity
QVQLVESGGGLVQAGGSLRLSCAASGRTLRIYAMGWYRQAPGKERELVAAITSSGRTNYADSVKGRFTISRDNAKNTVYLQMNSLKPEDTAVYYCSADYYYYVAGVHYDYWGQGTQVTVSS | low polyreactivity
QVQLVESGGGLVQAGGSLRLSCAASGRTLRRYAMGSYREAPGKERELVATISGRGGSTYYADSVMGRFTISRDNAKNTVYLQMNSLKPEYTAVYYCNRVTSRVSGRYSYDYWGQGTQVTVSS | high polyreactivity
QVQLVESGGGLVQAGGSLRLSCAASGRTLRRYAMGWYRQAPGKERELVAAISRSGSSTYADSVKGRFTISRDNAKNTVYFQMNSLKPEDTAVYYCNAVYGYSAHGYYYRYDYWGQGTQVTVSS | high polyreactivity
QVQLVESGGGLVQAGGSLRLSCAASGRTLRSYAMGWYRQAPGKERELVAAITRTGGDTYYADSVKGRFTISRDNANNTLYLQMNSLKPEDTAVYYCAAQRYRGYDYWGQGTQVTVSS | high polyreactivity
QVQLVESGGGLVQAGGSLRLSCAASGRTLRVNTMGWYRQAPGKERELVAAISSGGSRTNYADSVKGRFTISRDNAKNTVYLQMNSLKPEDTAVYYCNKYNRFVYSPPSVYWGQGTQVTVSS | high polyreactivity
QVQLVESGGGLVQAGGSLRLSCAASGRTLRWYAMGWYRQAPGKERELVAAIRWSGGSTYYADSVKGRFTISRDNAKNTVYLQMNSLKPEDTAVYYCAAYYVARDRRYPKAYSYEYWGQGTQVTVSS | high polyreactivity
QVQLVESGGGLVQAGGSLRLSCAASGRTLRYNTKGWYRQAPGKERELVADISWTGGSTYYADSVKGRFTISRDNAKNTVYLQMNSLKPEDTAVYYCAADEWWYPWYDYWGQGTQVTVSS | high polyreactivity
QVQLVESGGGLVQAGGSLRLSCAASGRTLRYNVMGLYRQAPGKERELVAVIDRSGVSTYYADSVKGRFTISRDNAKNTVYLQMNSLKPEDTAVYYCAAPRVVYRGDYWGQGTQVTVSW | high polyreactivity
QVQLVESGGGLVQAGGSLRLSCAASGRTLRYNVMGWYRHAPGKERELVAAISSGGSTYYADSVKGRFTISRDNAKNTVYLQMNSLKPEDTAVYYCAKRVSNWVTGGGYYYWGQGTQVTVSS | high polyreactivity
